Measured values published in the RNAGym collection of RNA variant scans (doi:10.7554/elife.80360).

B1: HDV Ribozyme (parent)
chain: GGCCGGCAUGGUCCCAGCCUCCUCGCUGGCGCCGGCUGGGCAACAUUCCGAGGGGACCGUCCCCUCGGUAAUGGCGAAUGGGACCCA

Variants of: B1
Experiment: self-cleavage, relative activity (ratio to wild type); higher = more cleavage; co-transcriptional

Variant	self-cleavage
U69A G74U	0.665
C49A G74A	0.288
G17U G81U	0.381
G34C U47G	0.133
C61U G82A	0.325
C61U U72G	0.567
A16U C44U	0.6
C21A U47G	0.0504
C32G C41G	0.0665
C3U C14U	0.758
G11C G28C	0
C4G G17C	0.0354
G52C U72C	0.332
C3A C44G	0.0615
C15U G39C	0.0639
G2C G31A	0.0382
U27G U72C	0.32
G28C C44U	0
G54U U69A	0.899
A45C C63A	0.748
C14A G74U	0.281
C63A G73A	0.681
U65G A70G	1.05
G52U A78G	0.514

Variant	self-cleavage
G38C G50A	0.188
A16C C26U	0.886
C58U A71G	1.08
C63G A70G	0.76
G11A C15A	0.108
C4U A56U	0.898
A45U C48G	0.739
G6A G80C	0.0941
C66U C84G	0.57
C49U U60A	0.718
G1U G82U	0.389
C19U C44A	0
C15G G28U	0.0437
C41G U72A	0.499
C7A A45C	0.0462
U27G C61U	0.831
C24U A43G	0
C49G G50C	0.587
C18G A77C	0.178
A43U G81C	0.181
C33A G81C	0.222
G28U C32A	0.0496
G40A A51G	0.749
C49U G81U	0.314

Variant	self-cleavage
C26G G54A	0.655
G17C G50U	0.332
C7A C61A	0.692
C44A C85G	0.629
C62G C84A	0.712
G31U G80C	0.0449
C30A G38A	0.219
U23A A77C	0.332
C3U A8C	0.269
C15A G52U	0.844
C66G A87C	0.857
A8U G59U	1.04
G11A A77C	0.0898
C30G U60G	0.0386
C15U C36A	0.208
G81C G82C	0.106
G52A G81C	0.259
C14U G40A	1.17
U72C A83C	0.332
G34A G73U	0.0437
U12C C49A	0.322
G29U A43C	0.136
G10A G67C	0.599
U20G C21U	0.26

Variant	self-cleavage
G6C C21A	0
C24G C85G	0.125
C48A G67C	0.856
C22A U65C	0.446
C22U C66U	0.604
U37A G76A	0.172
U23G G67U	0.789
C13A G50C	0.283
G10A G11A	0.189
U20A G52A	0.0415
C48U C84A	0.958
U27C G73A	0.231
C4A G80U	0.048
G6C A83G	0.189
C13A C24U	0.145
C13G A78G	0.111
C19A G34A	0.0755
G50A G54C	0.628
U60G C64G	0.919
C13A A51U	0.172
C32U C63G	0.721
U23G G25U	0.0594
G29A G35A	0.0923
G2U C30A	0.0396

Variant	self-cleavage
C14G C26U	1.18
G39C C61U	0.233
C18U C75A	0.366
U23C G67A	0.927
G39C G81U	0.143
G5A G59C	0.219
G1U G73U	0.422
U20C G53C	0.151
U37C G39A	0.0997
C30G C85U	0.0302
C48A G68C	0.707
G34A A83C	0.203
A8G C85G	0.895
G17C A87U	0.171
C58G G76U	1.11
U9G G73A	0.665
U9G G73C	0.767
U37G C66U	0.196
C15A C44G	0.431
U20A A45G	0
A16U A70U	0.764
G55U G67A	0.881
G1A A45U	0.208
G2A G73A	0.0742

Variant	self-cleavage
C13G G38C	0.0504
C30A A56U	0.727
C7G A77G	0.0755
G53U C86A	1.07
G17U C30A	0.831
C41A G73A	0.912
G2A G74C	0.0811
U69G G73U	0.314
C26U G40U	1.03
G2U U27G	0.0791
G80A C84A	0.58
G29C C66A	0.0475
C22A C49A	0.128
C19U C57A	0.0886
A71G A78U	0.229
U9C G35A	0.394
U23C A45G	0.8
C3A G28C	0.0275
U20C C49A	0.172
C48G A71U	0.554
A56C G82A	0.684
G73C A87G	0.454
G74U C85U	0.614
G29U U37G	0.0723

Variant	self-cleavage
C33U A51G	1.01
G2A U23A	0.219
C7U G76A	1.09
C18U C33A	0.0354
C13G U46C	0.18
G35C G80A	0.212
U27C C63U	0.73
G1A U65A	0.0692
G55C C75A	0.148
G25A G40U	0.161
U20C G76U	0.17
G6U G10U	0.0791
G68C G74A	0.362
A8C C61A	0.931
C7A G59U	0.646
A83G A87U	0.861
G40A A77G	1.05
C44A C75U	0.218
C44A C75A	0.359
U9A C49G	0.88
A16G C75A	0.122
U47C G50C	0.831
C49U C63G	0.396
C7U C75G	0.0852

Variant	self-cleavage
C14U U72G	0.598
C13U G35U	0.163
C14G C62U	0.554
G54C G76C	0.981
G29C G76C	0.0386
G28U C63G	0.262
U12C C61G	0.32
C7G C61A	0.486
U23G U69C	0.598
G11A U23C	0.353
G17C G28U	0.0707
U27C C58G	0.7
U20A C84A	0.208
C36U A42G	0.122
U37C A78C	0.196
C13U G50U	0.642
G6A G53A	0.874
C32A A51U	0.256
U72G	0.662
G10A G50C	0.513
G5U G53A	0.332
G2U U20A	0.0563
G17C C58A	0.388
G6U G31U	0.121

Variant	self-cleavage
G31A C75G	0.086
G54C G73U	0.205
C61G A70C	0.944
G54A G55C	1.04
C41A G74U	0.513
G28C U60A	0.104
U9C A16G	1.51
G35A U79G	0.397
C13G G80C	0.0997
G28C U65C	0.101
U37C G68A	0.864
G52U G68A	0.517
G50C G59A	0.992
G81A A83C	0.165
C36A G82U	0.0839
G25U G40C	0.0297
G67U G81A	0.254
C15A G54U	0.585
G6A U37C	0.853
A77U C85U	0.96
G1C A70U	0.115
U27A G52U	0.846
A70G G76A	0.92
U37A C64A	0.0723

Variant	self-cleavage
C24G A51C	0
C22G U69A	0.095
C26G A56G	0.795
C15A C58A	0.332
U37C G38C	0.237
U27A C85G	0.793
G6C G17C	0
C18A C26A	0.244
U23A C62G	0.776
U9G C58U	1.2
G11A C61G	0.332
U37G G67A	0.0692
U23A A71C	0.712
C3A A78C	0.0785
A8C A78C	0.302
C49G G59A	1.11
U20A G39C	0.185
G31A G81U	0.126
C24A A83U	0.415
U12A A51G	0.196
C48G G80U	0.244
C7A A51U	0.538
G55C C66G	1.2
C64G G82U	0.228

Variant	self-cleavage
C7A A43C	0.0923
A42G C57A	0.527
G52A U79G	0.718
G2C C15G	0
C21U A45G	0.291
U20A C33U	0
G50C A77U	0.554
G11C C21G	0
C21A G29C	0.0604
C44G G50U	0.767
C49A C85G	0.762
C21A U27G	0.0639
U12C C41U	0.415
A45G U79G	0.317
G55U U60G	1.12
C14A U37C	0.504
G52A G76U	0.983
C7A U69A	0.449
C21A C49A	0.157
G38A C63U	0.0923
C13A A71C	0.135
U12G A16C	0.831
C14A C30A	0.104
C3A U27G	0.322

Variant	self-cleavage
U27C U65C	0.798
U46A C49A	0.665
C18G G38U	0.0386
C19U C41A	0.0804
G25U C63U	0.163
C4A U46C	0.111
C36A G55U	0.124
C64A C75G	0.18
G17C G80U	0.0588
C22G U65C	0.0997
C33U G81A	0.285
C41A C66G	0.91
C48U C49U	0.85
C15A C36U	0.253
G17C C86G	0.131
C41U G73A	0.929
G17U C26U	0.654
U20C C30U	0.157
C24A C84U	0.587
C33A G38C	0.151
G50A A71G	0.991
U65A A70U	1.14
G53U A83G	0.739
C7U C18G	0.0639

Variant	self-cleavage
C22U A56G	0.895
A16G A56G	0.864
C18A A77C	0
U27A G29A	0.135
G29U A56U	0.109
G29A C36U	0.0264
C41A A83G	0.732
C58G C84G	0.554
A42G G67A	0.435
G1C A42U	0
U9C G81C	0.598
C32U U60G	1.02
G17A A71U	0.499
G6A G50U	0.708
U27A U65G	1.12
U9C A70U	0.831
A42U U69A	0.364
C44G C64A	0.745
C13A A83U	0.142
G1C	0.179
G34A A70G	0.233
G6C G40A	0.259
A43C A71C	0.534
G6U U27G	0.172

Variant	self-cleavage
C19A G55C	0.0489
G5A C63A	0.277
C24G G76U	0.339
U20G G54A	0.201
C3G C44U	0.156
C7G G82C	0
G6U C19A	0.0326
C44U U65G	0.812
C26U A70U	1.01
G34C U79A	0.104
A42C G55U	0.409
G2U C14A	0.12
C44U C64G	0.862
C21G C62U	0
C61A A83G	0.997
C21G G55U	0.0755
C36U C49G	0.607
C41G G81C	0.138
C19A U72A	0.0504
C58G A70U	0.929
C61U G73A	0.547
G10U G52C	0.639
